Measurements published in paper PMC4405178 (Biochemistry, 2015).

Molecular target: T1, full-length Ste2p V49D (Saccharomyces cerevisiae, UniProt D6VTK4 1-431, V49D)
T1 sequence (looked up): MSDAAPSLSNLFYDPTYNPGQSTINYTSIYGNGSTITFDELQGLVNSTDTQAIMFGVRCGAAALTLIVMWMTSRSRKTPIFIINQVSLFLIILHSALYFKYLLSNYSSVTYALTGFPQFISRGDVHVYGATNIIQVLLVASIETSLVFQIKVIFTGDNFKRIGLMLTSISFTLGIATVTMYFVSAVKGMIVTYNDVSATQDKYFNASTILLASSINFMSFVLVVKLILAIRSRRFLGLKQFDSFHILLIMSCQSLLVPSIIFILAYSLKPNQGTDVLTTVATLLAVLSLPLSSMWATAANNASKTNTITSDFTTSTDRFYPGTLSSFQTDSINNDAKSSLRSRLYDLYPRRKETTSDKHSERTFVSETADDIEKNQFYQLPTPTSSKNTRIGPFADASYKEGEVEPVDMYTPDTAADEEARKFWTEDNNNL
Assay: flow cytometry on cells

Kd: 5.3 ± 2.3 nM
B1: [K^7(NBD),Nle^12] α-factor (peptide)
chain: WHWLQLKPGQPMY
modifications: NBD (7-nitrobenz-2-oxa-1,3-diazol-4-yl) conjugated to the lysine at position 7; norleucine at position 12 in place of methionine
